Tested on: MS2 coat protein
Assay: apparent KD of MS2 coat protein; designed switch direction (-1 OFF switch, 1 ON switch): -1; higher = weaker reporter binding
In short: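 Normalised cluster fluorescence was curve-fitted, and each design's median over clusters is its apparent KD. Before this, SNAP-549-labelled MS2 coat protein was titrated from 0.7 or 1.5 nM, doubling to 3 µM, over RNA switches transcribed on Illumina chips by stalled E. coli RNA polymerase. Titrations had no input, 200 uM small-molecule ligand, or an oligonucleotide input, and steps lasted 0.8–1.5 h (lowest) to 10–20 min (highest).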

[1] = Eterna round: R95, input ligand: microRNA oligo, concentration not stated
[2] = Eterna round: R95, input ligand: FMN 200 uM
[3] = Eterna round: R95, input ligand: none
[4] = input ligand: microRNA oligo, concentration not stated

Sequence: GGUUUAGUAGAGGAUAUGUCACUGUCGCAGGAGACAGAAGGCUGCACAUGAGGAUCACCCAUGUCGGUAAUGAG [Eternabot (L1) Solution 89] (Eterna round: R97, puzzle: Exclusion 6)
- apparent KD of MS2 coat protein (input ligand: FMN 200 uM): 21.8 nM
- apparent KD of MS2 coat protein (input ligand: none): 16.3 nM

Sequence: AAAAUGUAAGGAUAUGGCCGGGACCCAGGGUUUGGACCCGGCUAGAAGGUACAUGAGGAUCACCCAUGUAAGAA [Excls4-VIII] (puzzle: Exclusion 4)
- apparent KD of MS2 coat protein [1]: 16.1 nM

Sequence: AAAUAGGUAGGAUAUACAUGAGGAUCACCCAUGUGCUGCCGCGCGUCAAUCUCUUCACGUAGAAGGGCCCAGAC [Reveara] (Eterna round: R97, puzzle: Exclusion 3)
- apparent KD of MS2 coat protein (input ligand: FMN 200 uM): 13.1 nM
- apparent KD of MS2 coat protein (input ligand: none): 14.1 nM

Sequence: CGGCAACAUGAGGAUCACCCAUGUUAGGAUAUCGGUGGCUGACACGAAACAGGACCGGUGAGAAGGAGUAUGGU [Eternabot (L1) Solution 2] (Eterna round: R97, puzzle: Exclusion 1)
- apparent KD of MS2 coat protein (input ligand: FMN 200 uM): 39 nM
- apparent KD of MS2 coat protein (input ligand: none): 39.2 nM

Sequence: AUUUACGGAGGAUAUACUUGAGGAUCACCCAAGUGGAGUCCCGUUUGGGCGGUAAAUAGUAGAAGGCCGUCCUA [jl-ex3-4.46 ViennaUCT mod] (Eterna round: R97, puzzle: Exclusion 3)
- apparent KD of MS2 coat protein (input ligand: FMN 200 uM): 27.7 nM
- apparent KD of MS2 coat protein (input ligand: none): 16.2 nM

Sequence: CAUUAACAUGAGGAUCACCCAUGUGAGGAUAUGGAUACAUAAUACUACUACAUAAAUACCAGAAGGCGCAUACU [Maybaline] (puzzle: Exclusion 1)
- apparent KD of MS2 coat protein [2]: 31.4 nM
- apparent KD of MS2 coat protein [1]: 28 nM
- apparent KD of MS2 coat protein [3]: 55.1 nM

Sequence: CUUGCGGACAAAGGAUAUUGCGGUGACCGGCUCGGCGUACCGAGCCUACAUGAGGAUCACCCAUGUAAGAAGGUUGACGCUGGU [JL ViennaUCT Qudice mod 4] (Eterna round: R96, puzzle: Exclusion NG 2)
- apparent KD of MS2 coat protein (input ligand: FMN 200 uM): 106 nM
- apparent KD of MS2 coat protein [4]: 20 nM
- apparent KD of MS2 coat protein (input ligand: none): 27.6 nM

Sequence: ACUCGUAACUAGGAUAUCCGAAAUAAACGAGGAGGAGAAGGAGUUACAUGAGGAUCACCCAUGUGAUAUAAAGA [Edtisoed] (puzzle: Exclusion 6)
- apparent KD of MS2 coat protein [2]: 47 nM
- apparent KD of MS2 coat protein [1]: 15.3 nM
- apparent KD of MS2 coat protein [3]: 17.6 nM

Sequence: AGUACUAACACGAAAGUGUUAGUGCAAUAAGCUUGUGAAACAUGAGGAUCACCCAUGUCCUCAUAAGCUCGUCUUAU [salish99_TOv2_r3_039] (puzzle: Sensor v3, turn-off variant 2)
- apparent KD of MS2 coat protein [2]: 15.6 nM
- apparent KD of MS2 coat protein [1]: 582 nM
- apparent KD of MS2 coat protein [3]: 16.2 nM

Sequence: ACAUUGCGAGGAUAUACAUGAGGAUCACCCAUGUGGUAGUGGAUACGGUAGGGCUAGUGUAGAAGGUGUUAUGA [EX3 #15] (Eterna round: R97, puzzle: Exclusion 3)
- apparent KD of MS2 coat protein (input ligand: FMN 200 uM): 98.8 nM
- apparent KD of MS2 coat protein (input ligand: none): 132 nM

Sequence: GGUUGACAUGAGGAUCACCCAUGUGAGGAUAUGCGAGAGAAAAAAGUGAGGAAGAAAUGCAGAAGGCGCUGUCG [salish99-ex1_r3_009] (puzzle: Exclusion 1)
- apparent KD of MS2 coat protein [2]: 127 nM
- apparent KD of MS2 coat protein [1]: 81.5 nM
- apparent KD of MS2 coat protein [3]: 433 nM

Sequence: ACAUGUUGUCCAUGAUAUUACAUGAGGAUCACCCAUGUUAUUGCGAUUUUGAUGUGUAAGUUUGUUGCUCGUCUUAU [JR_STOV1_Sub062] (Eterna round: R97, puzzle: Sensor, turn-off variant 1)
- apparent KD of MS2 coat protein (input ligand: FMN 200 uM): 29.6 nM
- apparent KD of MS2 coat protein (input ligand: none): 32.6 nM

Sequence: UCGCUGCGAGGAUAUACGUUCGCGCGCUUUCGUUUGCGCGUACAUGAGGAUCACCCAUGUAGAAGGCGCGCUGC [Apr-15 SS2-7] (puzzle: Exclusion 2)
- apparent KD of MS2 coat protein [1]: 13.7 nM

Sequence: UAAUUGUGAGGAUAUUCGUAUAACACGGAGACGUGUUGUACGGAGAAGGCACAUGAGGAUCACCCAUGUUCCUU [Mat - Exclusion 4 - JL Mod - D18] (Eterna round: R97, puzzle: Exclusion 4)
- apparent KD of MS2 coat protein (input ligand: FMN 200 uM): 96 nM
- apparent KD of MS2 coat protein (input ligand: none): 15.2 nM

Sequence: GGUUGUUGUUUCCGUUCUUACAUGAGGAUCACCCAUGUUUCUUGUCGUGCUCGCGUUGCUCGUCUGGCUGCCUGUUG [salish99_TOv1_r3_070] (puzzle: Sensor v3, turn-off variant 1)
- apparent KD of MS2 coat protein [2]: 41.2 nM
- apparent KD of MS2 coat protein [1]: 37.4 nM
- apparent KD of MS2 coat protein [3]: 54.4 nM

Sequence: AAAGAACUAGGAUAUCGCGCUACAGACAUGAGGAUCACCCAUGUAAUCGCAUGUCAAGUUUGAGAAGGAGUGAAGA [Usissodi] (puzzle: Exclusion 5)
- apparent KD of MS2 coat protein [2]: 21.5 nM
- apparent KD of MS2 coat protein [1]: 11.9 nM
- apparent KD of MS2 coat protein [3]: 9.9 nM

Sequence: UUGUUAUAUGUAGGAUAUGCGUAUUAUUAUUGGGCAGAAGGACAUGAGGAUCACCCAUGUAUGUUGUUGUUAUAUAUUAUAUAU [Title] (Eterna round: R96, puzzle: Exclusion NG 1)
- apparent KD of MS2 coat protein (input ligand: FMN 200 uM): 47.2 nM
- apparent KD of MS2 coat protein [4]: 34 nM
- apparent KD of MS2 coat protein (input ligand: none): 44.4 nM

Sequence: AAUGGUAAAGUCAGGAUAUACGUAAAUCGUUCUAGGUAGAAGGGACAUGAGGAUCACCCAUGUAUGAUAGUAAA [Ex4 #32] (Eterna round: R97, puzzle: Brourd's mod of Exclusion 4)
- apparent KD of MS2 coat protein (input ligand: FMN 200 uM): 31.9 nM
- apparent KD of MS2 coat protein (input ligand: none): 35.4 nM

Sequence: GCAUGCUCCGAGGAUAUCGAAGCUAAUUAUGCACGAGAAGGCGGAACAUGAGGAUCACCCAUGUGAUGCCAAUG [Qutequen] (Eterna round: R97, puzzle: Exclusion 6)
- apparent KD of MS2 coat protein (input ligand: FMN 200 uM): 51.9 nM
- apparent KD of MS2 coat protein (input ligand: none): 21.6 nM

Sequence: CUCACGCUCGAGGAUAUCGCACAAAACAAUCAACGAGAAGGCGAGACAUGAGGAUCACCCAUGUGUGGUCAAGA [Ceceed] (Eterna round: R97, puzzle: Exclusion 6)
- apparent KD of MS2 coat protein (input ligand: FMN 200 uM): 80.9 nM
- apparent KD of MS2 coat protein (input ligand: none): 590 nM

Sequence: CCGGCAUGAGGAUAUCCAUCUGGAUCAGACAAGAUCCUGAUGGAGAAGGCACAUGAGGAUCACCCAUGUUACGG [Mat - Exclusion 4 - Eli Mod - D56] (Eterna round: R97, puzzle: Exclusion 4)
- apparent KD of MS2 coat protein (input ligand: FMN 200 uM): 61.8 nM
- apparent KD of MS2 coat protein (input ligand: none): 132 nM

Sequence: GGGUGCAGGCUGAGGUCCUACAUGAGGAUCACCCAUGUGGUCCGGUGACGUGGGUCGCCGGACUUGGCUCGUCUUGU [salish99_S_TOV1_R5_012] (Eterna round: R97, puzzle: Sensor, turn-off variant 1)
- apparent KD of MS2 coat protein (input ligand: FMN 200 uM): 39 nM
- apparent KD of MS2 coat protein (input ligand: none): 48.6 nM

Sequence: CUAAAUCAUGUAGGAUAUGCGUAGCAAAGCUAUGCAGAAGGACAUGAGGAUCACCCAUGUCAUUCCGUCUGGAGACAGACGGGA [Mat - Exclusion NG 1 - Mod of JL - D55] (Eterna round: R96, puzzle: Exclusion NG 1)
- apparent KD of MS2 coat protein (input ligand: FMN 200 uM): 186 nM
- apparent KD of MS2 coat protein [4]: 21.6 nM
- apparent KD of MS2 coat protein (input ligand: none): 30.8 nM

Sequence: UAUUAACAAGCGAGAUCCCACAUGAGGAUCACCCAUGUGCUCGUCUUAUAAGGUACUGUGACGAAAGUCACGGUACC [Sensor 3, v1 - 91 v2] (Eterna round: R97, puzzle: Sensor, turn-off variant 1)
- apparent KD of MS2 coat protein (input ligand: FMN 200 uM): 17 nM
- apparent KD of MS2 coat protein (input ligand: none): 15.7 nM

Sequence: CUGGUCCGAGGAUAUAUUAUGUGAUACAUGAGGAUCACCCAUGUUAUAUGAUGGAUAUAAAUAGAAGGCGGACUAG [Mat - Exclusion 5 - JL mod - D66] (puzzle: Exclusion 5)
- apparent KD of MS2 coat protein [2]: 48.6 nM
- apparent KD of MS2 coat protein [1]: 42.4 nM
- apparent KD of MS2 coat protein [3]: 35.8 nM

Sequence: CCGAGCAGACGGAGAUCCAACAUGAGGAUCACCCAUGUCUCAAAAGCUUUUUGCUCGUCUUAUCCUCCUCUGUUCUC [Legedi] (puzzle: Sensor v3, turn-off variant 1)
- apparent KD of MS2 coat protein [2]: 27.6 nM
- apparent KD of MS2 coat protein [1]: 200 nM
- apparent KD of MS2 coat protein [3]: 25.7 nM

Sequence: CUAUAGUCAGGAUAUCUAAACAGGCCGAGCGUUCGCAGUCGAGAGAAGGGACAUGAGGAUCACCCAUGUCCUCC [Eternabot (L1) Solution 6] (Eterna round: R97, puzzle: Exclusion 4)
- apparent KD of MS2 coat protein (input ligand: FMN 200 uM): 15.2 nM
- apparent KD of MS2 coat protein (input ligand: none): 15.6 nM

Sequence: UAAGAGUGAGGAUAUACGUCGCUGGCCCGGAUGGACGCAUGACAUGAGGAUCACCCAUGUAGAAGGCACAAAAC [Enxela Mod 14 - Jieux - Exclusion 2] (Eterna round: R97, puzzle: Exclusion 2)
- apparent KD of MS2 coat protein (input ligand: FMN 200 uM): 34.7 nM
- apparent KD of MS2 coat protein (input ligand: none): 29.7 nM

Sequence: UAUUUCAUCUAUGGGAGUAACAUGAGGAUCACCCAUGUAUGUCUUGUUUUUUGUUCGUCUAAGACUUUCUGAUCAGU [JR_SV3TOV1_Sub031] (puzzle: Sensor v3, turn-off variant 1)
- apparent KD of MS2 coat protein [2]: 34.2 nM
- apparent KD of MS2 coat protein [1]: 45.5 nM
- apparent KD of MS2 coat protein [3]: 35.4 nM

Sequence: CUUUAGCAAGCGAGAUCCCACAUGAGGAUCACCCAUGUGCAUCCAGAAUUACUGGGUGCAAAAGCUCGUCUUAUAUC [mod-Eli newdang-1b] (Eterna round: R97, puzzle: Sensor, turn-off variant 1)
- apparent KD of MS2 coat protein (input ligand: FMN 200 uM): 58.4 nM
- apparent KD of MS2 coat protein (input ligand: none): 62.6 nM

Sequence: GAAAAGUAAGGAUAUGUCCACAGUGAGGAAACUCACUGUGGACAGAAGGUACAUGAGGAUCACCCAUGUUCCUC [ExDelusion 4 - Jieux - Exclusion 4] (Eterna round: R97, puzzle: Exclusion 4)
- apparent KD of MS2 coat protein (input ligand: FMN 200 uM): 577 nM
- apparent KD of MS2 coat protein (input ligand: none): 44.2 nM

Sequence: CUUGUUUAAGUGAGGAUAUACUGUUAGUAAUGAUUGUAGAAGGUACAUGAGGAUCACCCAUGUUUAUUUAUAUU [JR_BME4_Sub042] (puzzle: Brourd's mod of Exclusion 4)
- apparent KD of MS2 coat protein [1]: 16.4 nM

Sequence: CUGCUCCGUGUAGGAUAUGCAUACUCCCAUUAUGCAGAAGGACAUGAGGAUCACCCAUGUAUGUUAUUAUCAUGUGUUGCAUGC [Design 11] (Eterna round: R96, puzzle: Exclusion NG 1)
- apparent KD of MS2 coat protein (input ligand: FMN 200 uM): 164 nM
- apparent KD of MS2 coat protein [4]: 33.9 nM
- apparent KD of MS2 coat protein (input ligand: none): 37.3 nM

Sequence: GCAGACGUAGUGAGGAUAUGCUCUACCUCGGUAGAGCAGAAGGCACAUGAGGAUCACCCAUGUGACUCCUCAUC [Omei Ex4B B18] (Eterna round: R97, puzzle: Brourd's mod of Exclusion 4)
- apparent KD of MS2 coat protein (input ligand: FMN 200 uM): 49.2 nM
- apparent KD of MS2 coat protein (input ligand: none): 20.1 nM
